This is an account of results in patent US20200247855A1, “THERAPY AND DIAGNOSTICS” (OXFORD UNIVERSITY INNOVATION LIMITED, priority 2017, published 2020).

One experiment deals with chemokines. The following applies: list of chemokines bound, from the literature [18,20-22]; cited from earlier work.
In the next experiment the target is T1, CCL8_HUMAN (Homo sapiens, UniProt P80075).
T1 sequence (P80075 24-99): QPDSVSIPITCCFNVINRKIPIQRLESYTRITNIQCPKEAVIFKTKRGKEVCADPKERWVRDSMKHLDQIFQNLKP
As to the kind of experiment: Biolayer interferometry (BLI) binding. The following applies: for CCL8 binding (bound or not): 300 nM or 600 nM CCL8. As for the experimental part: (§1) Table 1. Tick CKBPs described in PCT/GB2017/050563 and [17]. Tick peptide sequences isolated in yeast surface display fluorescent-activated cell sorting (FACS) screens using a labelled chemokine. Identity with Evasin-1, 4 or 3 was calculated using BLAST. Abbreviations: IXORI—Ixodes ricinus, RHISA—Rhipicephalus sanguineus, AMBMA—Amblyomma maculatum, AMBPA—Amblyomma parvum, AMBTR—Amblyomma triste, AMBAM—Amblyomma americanum, AMBCA—Amblyomma cajennense, RHIPU—Rhipicephalus pulchellus. Table 2A-C. Binding characteristics of tick CKBPs previously disclosed (PCT/GB2017/050563 and [17]). All members of the human chemokine family[164] are listed in column 1. Binding to human chemokines was determined for 14 tick CKBPs using biolayer interferometry (BLI) with calculated Kd shown as Molar (Moles/Litre). Binding data for 17 other novel tick CKBPs was assayed using yeast surface display[17,166],with positive binding results shown as “YES”. For biolayer interferometry, His-tagged purified tick CKBP was bound to a Ni-NINTA sensor on an OctetRed® 384 system, and then binding to each chemokine listed (with the exception of CCL25, CCL26, CXCL16, CXCL17, CXCL4L1, XCL2) was assayed in a cross-binding screen at a chemokine concentration of 300 nM as described. For those chemokines showing binding to a tick CKBP in the cross-binding screen, binding assays were repeated using different doses of chemokine. Association, equilibrium and dissociation data were analysed using Octet software to create corresponding fitted curves, and used to calculate Kd. For yeast surface display, (YSD) background fluorescence was controlled for by using either an empty vector or by omitting the chemokine (i.e. using streptavidin-Alexa647 alone). An arbitrary threshold of >3 fold over background mean fluorescence intensity was chosen to describe confirmed re-tests. Where binding was detected data are indicated as “YES”. […] For yeast surface display data, empty cells represent chemokines that were not tested. Binding data published in relation to previously described tick CKBPs (Evasins-1, 4 and 3) is also shown for comparison in each of FIGS. 2A-C, with the relevant data obtained from publications: [20-22,32]. Table 3: Neutralisation of human chemokines by tick CKBPs previously disclosed (PCT/GB2017/050563 and [17]). Neutralising activity was determined using a quantitative THP1 cell migration assay in a 96-well Boyden chamber with chemokine in the bottom chamber as described. Cells migrating through to the bottom chamber at 4 hours were counted using flow cytometry in a 96 well plate format. IC50 for neutralisation was determined at the chemokine EC80 dose as determined using a range of tick CKBP concentrations. Data was analysed using GraphPad Prism to determine IC50, which is shown as Molar (Moles/Litre). Empty cells represent experiments not done. Table 4—Other previously described tick CKBPs. Tick CKBPs that were also described in PCT/GB2017/050563 and Singh et al. are indicated in “Notes”. Table 5.—Novel tick CKBPs of the invention. Table 6. […] The peptide sequence prefix indicates the identity, and suffix indicate the tick species as follows: AMBCA, Amblyomma cajennense and IXORI, Ixodes ricinus. […] Certain tick peptides e.g. P1074_IXORI were recovered from screens performed with more than one chemokine. Individual yeast clones recovered from the library were re-tested using a FACS (fluorescence activated cell sorting), experiment. The binding of the peptide to the chemokine was assayed by measuring the percent (%), of yeast cells expressing the given peptide that exceeded a background threshold set by measuring the fluorescence of the yeast library pool treated with streptavidin-[…] alone. When more than one independent yeast clone was isolated for a given peptide-chemokine combination, the mean percent shift was calculated and reported in column 3. […]
(In general: BLI is a label-free optical method that tracks binding on a fibre tip over time.)

Another experiment concerns the target T2, CCL4L1_HUMAN (Homo sapiens, UniProt Q8NHW4).
T2 sequence (Q8NHW4 24-92): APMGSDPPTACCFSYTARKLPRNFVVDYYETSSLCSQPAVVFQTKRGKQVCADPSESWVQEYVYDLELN
As to the kind of experiment: Biolayer interferometry (BLI) binding. As for the experimental part: as §1

In the next experiment the target is CCL2_HUMAN (Homo sapiens, UniProt P13500). The experiment can be described thus: Biolayer interferometry (BLI) binding. The method, then: as §1
CCL2_HUMAN, sequence (P13500 24-99): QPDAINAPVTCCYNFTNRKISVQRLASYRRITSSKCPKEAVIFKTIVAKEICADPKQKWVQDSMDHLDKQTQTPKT
For another experiment, the target named is CCL7_HUMAN (Homo sapiens, UniProt P80098). As to the kind of experiment: Biolayer interferometry (BLI) binding. As for the experimental part: as §1
CCL7_HUMAN, sequence (P80098 24-99): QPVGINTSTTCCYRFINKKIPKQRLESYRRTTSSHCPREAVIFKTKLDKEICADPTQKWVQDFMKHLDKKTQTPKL
The target of a further experiment is CCL11_HUMAN (Homo sapiens, UniProt P51671). As to the kind of experiment: Biolayer interferometry (BLI) binding. As for the experimental part: as §1
CCL11_HUMAN, sequence (P51671 24-97): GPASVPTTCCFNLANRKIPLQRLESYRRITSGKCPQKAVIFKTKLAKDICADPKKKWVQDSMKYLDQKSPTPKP
For a further experiment, the target named is T3, CCL4_HUMAN (Homo sapiens, UniProt P13236).
T3 sequence (P13236 24-92): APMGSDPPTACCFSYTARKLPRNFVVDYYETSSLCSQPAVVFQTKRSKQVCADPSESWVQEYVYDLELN
The experiment can be described thus: Biolayer interferometry (BLI) binding. The method, then:
as §1

A further experiment deals with CCL13_HUMAN (Homo sapiens, UniProt Q99616). As to the kind of experiment: Biolayer interferometry (BLI) binding. As for the experimental part:
as §1

“Also recorded” adds a separate entry of the source.

Broadly, the Kd is the free concentration of one partner at which half of the binding sites on the other are occupied at equilibrium, for simple one-to-one binding.

CCL13_HUMAN, sequence (Q99616 17-98): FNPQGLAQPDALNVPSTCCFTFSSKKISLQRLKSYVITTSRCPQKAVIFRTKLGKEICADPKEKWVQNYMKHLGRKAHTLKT

B1: AAM-01: previously described tick CKBP, Amblyomma americanum (protein, listed as Amblyomma americanum)
chain: ESEGSVSTETEVISYEDDCQDDNSTCFIQTLNTTGEPRPVGCILECENSTQRLPNGTECLGLPGLAAVKMQRNVSYTCSVGLCNGEGVCDRTGLWIGCWTNTPPPNSTNVTTKPPTTTTASPGTG
Turning to B1, the “Previously described chemokine binding” value in the experiment with chemokines is “CCL11, CCL24,; also recorded: CCL26, CCL2,; also recorded: CCL8, CCL7”.

B2: IHO-01: previously described tick CKBP, Ixodes holocyclus (protein, listed as Ixodes holocyclus)
chain: AFVSSSTEVEIGSTSEHNSNETDEYGYDYNADGLGCPVVGIGGLDNKTWHPNCTNECPNSTKLFLLENGTP
Take B2: the “Previously described chemokine binding” value with chemokines is “CCL11, CCL24, and CCL26, CCL2, and CCL8”.

B3: Evasin-1 peptide encoded by EZ406190.1: Evasin-1 peptide variant K92E encoded by nucleotide sequence EZ406190.1 (protein)
chain: EDDEDYGDLGGCPFLVAENKTGYPTIVACKQDCNGTTETAPNGTRCFSIGDEGLRRMTANLPYDCPLGQCSNGDCIPKETYEVCYRRNWRDEKN
Take B3: the “CCL8 binding (bound or not)” value with CCL8_HUMAN was “does not bind CCL8”.

B4: IRI-01: previously described tick CKBP, Ixodes ricinus (protein, listed as Ixodes ricinus)
chain: GPAPSAKENEKAPLCLPQESLINNRDPNGCNYQLLPYFTEDGMGGGFLAIDCSKSCPEGTHETVVDGNS
In the case of B4, in the experiment on chemokines, the “Previously described chemokine binding” value is listed as “CCL11, CCL24,; also recorded: CCL26, CCL2,; also recorded: CCL8, CCL7”.

B5: P1183_AMBTR: tick CKBP, Amblyomma triste (protein)
chain: EAPKDDFEYDGGCPFVVLDNGTHVKPAGCSHLCNGAPETLDNIECYNVTEEVAKRMTPGIPYACWLGWCSKGECKRDNRTEVCYRGSEEE
modifications: Amblyomma triste
Consider B5, for which the Kd came out at 1100 nM with CCL8_HUMAN (read-out: Kd, CCL8_HUMAN); 48 nM with CCL4L1_HUMAN; 12 nM with CCL2_HUMAN; 5.4 nM in the experiment with CCL7_HUMAN; 8.5 nM with CCL11_HUMAN; 78 nM with CCL4_HUMAN. Besides, the Kd with CCL13_HUMAN was determined as 5.7 nM.

B6: ACA-02: previously described tick CKBP, Amblyomma cajennense (protein)
chain: GIEGSGNLATSHEMDDCLDDNSTCVIQTLNTTGEPRPVGCVLKCKNSTQHLANGTECLGIPELAGVRMQYNVSYTCAVGLCNAGVCERTGLWIGCWQNEPPPNSTDVTTTAPTTTTASTSSV
modifications: Amblyomma cajennense
In the case of B6, the “Previously described chemokine binding” value in the experiment on chemokines is recorded as “CCL11, CCL24,; also recorded: CCL26”.

B7: SEQ ID NO: 82: substituted hybrid with greater extent of P672_RHIPU sequence in Evasin-1 (protein)
chain: VCEVSEQEGVGEDNATEDEDYEDFFKPVTCYFANSTVGPLRPPNCTVVCTNNTAWWNDTKSDGGHCYSEYRPEKRTHSREIYNCTIGVCGNGDCIPKETYEVCYRRNWRDEKN
modifications: tick CKBP sequence
Consider B7, for which the “CCL8 binding (bound or not)” value in the experiment with CCL8_HUMAN was “having a CCL8-binding function”.

B8: RPU-02: previously described tick CKBP, Rhipicephalus pulchellus (protein, listed as Rhipicephalus pulchellus)
chain: CEVQNTTLAEEDYDTGCGYNIVITKNKTLVVNCTMDCQPKMLMNESEPCLFNSSVPYDHMQPHHNYTCMEGICKNGTCVSPSNNITCWLPPPPVRYYPNETMVTSTIEPEA
Regarding B8, the “Previously described chemokine binding” value with chemokines is recorded as “CCL11, CCL24,; also recorded: CCL26, CCL2,; also recorded: CCL8, CCL7”.

B9: SEQ ID NO: 83: substituted hybrid with greater extent of P672_RHIPU sequence in Evasin-1 (protein)
chain: VCEVSEQEGVGEDNATEDEDYEDFFKPVTCYFANSTVGPLRPPNCTVVCTNNTAWWNDTKSDGGHCFSIGDEGLRRMTANLPYDCPLGQCSNGDCIPKETYEVCYRRNWRDEKN
modifications: tick CKBP sequence
For B9, in the experiment with CCL8_HUMAN, the “CCL8 binding (bound or not)” value is listed as “having a CCL8-binding function”.

B10: ATR-02: previously described tick CKBP, Amblyomma triste (protein)
chain: GNEVSDPPLTDEDCEYYDPSEDNITCSIRSLNTTGRPIPVGCLATCENSTRRLHNGTECLGISDQVANRMQGNVTYTCPVGLCYRGVCQRNGLGIDCWHNTPPPNSTNVTTNASTTPLPTSSRDL
modifications: Amblyomma triste
Take B10: the “Previously described chemokine binding” value in the experiment with chemokines is given as “CCL11, CCL24,; also recorded: CCL26, CCL2,; also recorded: CCL8, CCL7”.

B11: EVA1(P67222-32): hybrid protein: P672 (E22-F32) region swapped into the corresponding segment of EVA1_RHISA (protein)
chain: EDDEDYEDFFKPVTCYFLVAENKTGYPTIVACKQDCNGTTETAPNGTRCFSIGDEGLRRMTANLPYDCPLGQCSNGDCIPKETYEVCYRRNWRDKKN
modifications: EVA1 containing P672 E22-E32
notes: hybrid protein: P672 (E22-F32) region swapped into the corresponding segment of EVA1_RHISA
As to B11, the “CCL8 binding (bound or not)” value with CCL8_HUMAN is “bound CCL8”.

B12: AMA-01: previously described tick CKBP, Amblyomma maculatum (protein, listed as Amblyomma maculatum)
chain: ECEESDTSESTECSTEDYSNRIRDNETCFIGALNTTGHPVPVGCTLDCGNSTRYLPNGTECIDLTQQASDVMQSDVPYYCPIGLCANGICKRSGLELNCWHDMPPPVSTDTAIENPTTSISSSAKL
For the molecule B12, the “Previously described chemokine binding” value with chemokines is reported as “CCL11, CCL24,; also recorded: CCL26, CCL2,; also recorded: CCL8, CCL7”.
